Patent publication EP4790071A2 (Akeso Biopharma, Inc., dated 2026)

Target: T1, human NT5E-Biotin (for NT5E, GenbankID: NP_002517.1, position: 1-552) (human, UniProt P21589 27-552, biotin label, site not stated)
T1 construct: range 1-552; Positions 1-552 as printed include the signal peptide; No cleavage site is stated; also called HNT5E-Biotin; antigen human NT5E-Biotin
T1 sequence (looked up): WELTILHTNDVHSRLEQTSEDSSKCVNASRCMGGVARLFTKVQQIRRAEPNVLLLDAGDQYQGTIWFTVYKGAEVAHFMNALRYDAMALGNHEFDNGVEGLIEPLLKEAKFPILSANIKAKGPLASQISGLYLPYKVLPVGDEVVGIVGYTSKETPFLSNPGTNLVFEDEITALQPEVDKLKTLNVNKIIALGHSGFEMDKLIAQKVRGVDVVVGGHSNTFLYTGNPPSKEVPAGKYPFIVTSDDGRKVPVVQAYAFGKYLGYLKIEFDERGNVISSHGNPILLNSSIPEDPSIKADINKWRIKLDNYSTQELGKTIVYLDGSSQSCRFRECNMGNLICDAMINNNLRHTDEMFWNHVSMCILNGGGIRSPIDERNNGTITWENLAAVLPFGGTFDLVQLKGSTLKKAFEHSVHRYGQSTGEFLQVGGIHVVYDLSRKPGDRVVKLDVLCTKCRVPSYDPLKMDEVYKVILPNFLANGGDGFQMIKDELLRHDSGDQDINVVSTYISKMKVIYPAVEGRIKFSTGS
Test: ELISA, NT5E-Biotin on streptavidin plate

EC50: 0.018 nM
B1: murine anti-CD73 monoclonal antibody 19F3 (antibody, V domains shown)
VH: EVQLQQSGPELVKPGASMRMSCKASGYSFTGYTMNWVKQSHGKNLEWIGLINPYNAGTSYNQKFKGKATLTVDKSSSTAYMELLSLTSEDSAVYYCARSEYRYGGDYFDYWGQGTTLTVSS
VL: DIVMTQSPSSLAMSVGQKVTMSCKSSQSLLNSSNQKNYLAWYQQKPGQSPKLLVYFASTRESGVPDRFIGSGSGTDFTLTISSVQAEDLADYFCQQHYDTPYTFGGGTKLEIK
notes: also called murine antibody 19F3
